In the RNAGym collection of RNA variant scans (doi:10.7554/elife.90254):

B1: LINE1-mini (parent)
chain: GGCAGAGCUCAACACAGCGUGGCAAAGUGGCUGUGGCUAGACUGCC

Variants of: B1
Test: self-cleavage, relative activity (ratio to wild type); higher = more cleavage; in vitro, sequencing; the parent is a self-cleaving ribozyme

| Variant | self-cleavage |
| --- | --- |
| GGCAGAGCUCAACACAGCGUGGCAAAGUGGCUGUGGCUAGUCAGCC [A41U U43A] | 0.17 |
| GGCAGAGCUCAACACAGCGUGGCAAAGUGGCUGUGGCUAGUCGGCC [A41U U43G] | 0.17 |
| GGCAGAGCUCAACACAGCGUGGCAAAGUGGCUGUGGCUAGUCCGCC [A41U U43C] | 0.09 |
| GGCAGAGCUCAACACAGCGUGGCAAAGUGGCUGUGGCUAGAAAGCC [C42A U43A] | 0.15 |
| GGCAGAGCUCAACACAGCGUGGCAAAGUGGCUGUGGCUAGAACGCC [C42A U43C] | 0.09 |
| GGCAGAGCUCAACACAGCGUGGCAAAGUGGCUGUGGCUAGAAGGCC [C42A U43G] | 0.07 |
| GGCAGAGCUCAACACAGCGUGGCAAAGUGGCUGUGGCUAGACUGAU [C45A C46U] | 0.4 |
| GGCAGAGCUCAACACAGCGUGGCAAAGUGGCUGUGGCUAGACUGAA [C45A C46A] | 0.24 |
| GGCAGAGCUCAACACAGCGUGGCAAAGUGGCUGUGGCUAGACUGAG [C45A C46G] | 0.36 |
| GGCAGAGCUCAACACAGCGUGGCAAAGUGGCUGUGGCUAGACAGCU [U43A C46U] | 0.13 |
| GGCAGAGCUCAACACAGCGUGGCAAAGUGGCUGUGGCUAGACAGCG [U43A C46G] | 0.14 |
| GGCAGAGCUCAACACAGCGUGGCAAAGUGGCUGUGGCUAGACAGCA [U43A C46A] | 0.1 |
| GGCAGAGCUCAACACAGCGUGGCAAAGUGGCUGUGGCUAGAGUACC [C42G G44A] | 0.12 |
| GGCAGAGCUCAACACAGCGUGGCAAAGUGGCUGUGGCUAGAGUUCC [C42G G44U] | 0.06 |
| GGCAGAGCUCAACACAGCGUGGCAAAGUGGCUGUGGCUAGAGUCCC [C42G G44C] | 0.06 |
| GGCAGAGCUCAACACAGCGUGGCAAAGUGGCUGUGGCUAGACUUCA [G44U C46A] | 0.08 |
| GGCAGAGCUCAACACAGCGUGGCAAAGUGGCUGUGGCUAGACUUCG [G44U C46G] | 0.08 |
| GGCAGAGCUCAACACAGCGUGGCAAAGUGGCUGUGGCUAGACUUCU [G44U C46U] | 0.12 |
| GGCAGAGCUCAACACAGCGUGGCAAAGUGGCUGUGGCUAGACGGAC [U43G C45A] | 0.32 |
| GGCAGAGCUCAACACAGCGUGGCAAAGUGGCUGUGGCUAGACGGUC [U43G C45U] | 0.19 |
| GGCAGAGCUCAACACAGCGUGGCAAAGUGGCUGUGGCUAGACGGGC [U43G C45G] | 0.09 |
| GGCAGAGCUCAACACAGCGUGGCAAAGUGGCUGUGGCUAGAUGGCC [C42U U43G] | 0.15 |
| GGCAGAGCUCAACACAGCGUGGCAAAGUGGCUGUGGCUAGAUCGCC [C42U U43C] | 0.11 |
| GGCAGAGCUCAACACAGCGUGGCAAAGUGGCUGUGGCUAGAUAGCC [C42U U43A] | 0.12 |
| GGCAGAGCUCAACACAGCGUGGCAAAGUGGCUGUGGCUAGAUUGCA [C42U C46A] | 0.16 |
| GGCAGAGCUCAACACAGCGUGGCAAAGUGGCUGUGGCUAGAUUGCU [C42U C46U] | 0.24 |
| GGCAGAGCUCAACACAGCGUGGCAAAGUGGCUGUGGCUAGAUUGCG [C42U C46G] | 0.19 |
| GGCAGAGCUCAACACAGCGUGGCAAAGUGGCUGUGGCUAGACAGAC [U43A C45A] | 0.08 |

| Variant | self-cleavage |
| --- | --- |
| GGCAGAGCUCAACACAGCGUGGCAAAGUGGCUGUGGCUAGACAGGC [U43A C45G] | 0.08 |
| GGCAGAGCUCAACACAGCGUGGCAAAGUGGCUGUGGCUAGACAGUC [U43A C45U] | 0.16 |
| GGCAGAGCUCAACACAGCGUGGCAAAGUGGCUGUGGCUAGACUGAC [C45A] | 0.64 |
| GGCAGAGCUCAACACAGCGUGGCAAAGUGGCUGUGGCUAGACUGUC [C45U] | 1.43 |
| GGCAGAGCUCAACACAGCGUGGCAAAGUGGCUGUGGCUAGACUGGC [C45G] | 0.39 |
| GGCAGAGCUCAACACAGCGUGGCAAAGUGGCUGUGGCUAGACGCCC [U43G G44C] | 0.32 |
| GGCAGAGCUCAACACAGCGUGGCAAAGUGGCUGUGGCUAGACGACC [U43G G44A] | 0.37 |
| GGCAGAGCUCAACACAGCGUGGCAAAGUGGCUGUGGCUAGACGUCC [U43G G44U] | 0.25 |
| GGCAGAGCUCAACACAGCGUGGCAAAGUGGCUGUGGCUAGACUUUC [G44U C45U] | 0.14 |
| GGCAGAGCUCAACACAGCGUGGCAAAGUGGCUGUGGCUAGACUUAC [G44U C45A] | 0.11 |
| GGCAGAGCUCAACACAGCGUGGCAAAGUGGCUGUGGCUAGACUUGC [G44U C45G] | 0.17 |
| GGCAGAGCUCAACACAGCGUGGCAAAGUGGCUGUGGCUAGACCUCC [U43C G44U] | 0.09 |
| GGCAGAGCUCAACACAGCGUGGCAAAGUGGCUGUGGCUAGACCCCC [U43C G44C] | 0.08 |
| GGCAGAGCUCAACACAGCGUGGCAAAGUGGCUGUGGCUAGACCACC [U43C G44A] | 0.11 |
| GGCAGAGCUCAACACAGCGUGGCAAAGUGGCUGUGGCUAGAAUGCU [C42A C46U] | 0.19 |
| GGCAGAGCUCAACACAGCGUGGCAAAGUGGCUGUGGCUAGAAUGCG [C42A C46G] | 0.07 |
| GGCAGAGCUCAACACAGCGUGGCAAAGUGGCUGUGGCUAGAAUGCA [C42A C46A] | 0.2 |
| GGCAGAGCUCAACACAGCGUGGCAAAGUGGCUGUGGCUAGAGGGCC [C42G U43G] | 0.06 |
| GGCAGAGCUCAACACAGCGUGGCAAAGUGGCUGUGGCUAGAGCGCC [C42G U43C] | 0.03 |
| GGCAGAGCUCAACACAGCGUGGCAAAGUGGCUGUGGCUAGAGAGCC [C42G U43A] | 0.06 |
| GGCAGAGCUCAACACAGCGUGGCAAAGUGGCUGUGGCUAGACUCCU [G44C C46U] | 0.14 |
| GGCAGAGCUCAACACAGCGUGGCAAAGUGGCUGUGGCUAGACUCCG [G44C C46G] | 0.08 |
| GGCAGAGCUCAACACAGCGUGGCAAAGUGGCUGUGGCUAGACUCCA [G44C C46A] | 0.1 |
| GGCAGAGCUCAACACAGCGUGGCAAAGUGGCUGUGGCUAGACGGCU [U43G C46U] | 0.28 |
| GGCAGAGCUCAACACAGCGUGGCAAAGUGGCUGUGGCUAGACGGCG [U43G C46G] | 0.32 |
| GGCAGAGCUCAACACAGCGUGGCAAAGUGGCUGUGGCUAGACGGCA [U43G C46A] | 0.18 |
| GGCAGAGCUCAACACAGCGUGGCAAAGUGGCUGUGGCUAGACUACU [G44A C46U] | 0.16 |
